Article PMC3635982

Key:
[1] = target: human epidermal growth factor receptor, endogenous in HEp-2 cells (human (endogenous in HEp-2)) (UniProt P00533)
[2] = target: human epidermal growth factor receptor, endogenous in HEp-2 cells (human (endogenous in HEp-2)) (UniProt P00533); remark: listed apart in the source

Pmp21 on the surface of C. pneumoniae elementary bodies (from UniProt Q9Z6U5 31-1609) (natural protein)
infectivity of C. pneumoniae for cells preincubated 2 h with EGF [1]: 47 % reduction | infectivity of C. pneumoniae for HEp-2 cells pretreated 2 h with cetuximab [2]: 54 % reduction
